# Source: a protein production outcome set (Wang et al. 2014)
# Test: label from the status in PepcDB records
row,Sequence,protein production
1,MSTSQGSPNWPRAERVARLEVLETQILARPAEVYAEVLALWPGLSAAVPSPASPAPDSCPGPSELAAQATALQLLSRCAVLLGEDGAAANHAETGRRLAHDLGLRSLEARCLEVLGVVRGRQGDVKQAAWLLRRSLYLLHALGDTPGQGRLLGRVGDLLERLEEYPQALLFYRAGLAQLPAARPVTAAVQVGLARTLHQLGEYAESQELAAQALAVCQEVGLPQLEAQVQLQQALTQLALGELDASRRHAEQAQALAAPRHAEQAQALAAPLEHTVPGAAAWVLGEAALVRGDLAQAREGLGRAEELANTPPLLARVRGSQSRLYEQLGDPAQALRCLREQRELEQQHRARLAEQRAGLLAEQIRYEVLRREAELQRKRRNERAQAASALRETRVELSRQASHDQLTGLANRSFFYTRARQALDLLAPGRSLGLIVADIDHLKAINDRFGYAVGDLLITELARRLCEAVRPGDLVGRLSGDEFVMLLSDLASPGDLRLVAERLLQQLREPCVCGTELVVPTVSLGYVVAPQDGGDVELLQKRADLALFQAKAQGRNMAVAFAGDMSAEEEERRMLSQDLRHAVRHGQLQLHYQGIFLLPGQRLSGFEALVRWPHPKRGMIPPDRFIALAEESRLILELGRWVLDEACRQARAWQLPERGLTMAVNVSALQFEQSDFVAGVRACLEQHGLPGHSLVLELTESMVHRDPRLAKQTLRELQALGVKVAMDDFGTGYSSLSMLKSLPFGLLKIDREFLQDLSAASEQFAASQQFIEVMVRLAHNLQMRVVAEGVETAEQYDLLCGMGCDEAQGYWLARPLPPAEAAALLPAGAPDSPWPTQSPSSQQARQESPRQSLSED,failed
2,MSTSSTQHAAPAFTGFSSSAQAMSLVAFTTVATITLLLCVMTGPDRDDLEEFYTGYGSLSPMRNGLAIAGDYISAATVLGTGGVIALTGYDGVVLALSTALSLMLLMFLLAEPLRNAGQFTMGDALARRMPGRAVRVTACVVTIAALLPLMLVQLAGTGDLLSFILGFSNDTLKTGCIIGLGALMISYAAIGGMKGTALIQIMKIVMLLGSGAVVAVLILHRFDWDPGALFSAAAAHSGAGPAFLRSGLEFAGGPNPRLDMITTELTVVLGGGCLPHVTMRMYTANSARQVRRSMSWAVPAVALFVLVITVVGFGATALVGREAIAAADPQGNTAYLLGSRAAFGPDVSSAETLLFTTVTTALFLTLLASVAGMILACANSLAHDVFAARVQEMSPRREMTLARLSALAVGVPTILLATLVHHRSLQPLVTLSFCIGASAIAPALVYGLFWRRYTRTGLLCTLIGGTLSVVLLLPGTNLVTGSPAAAFPDADFNWFPFTTTGLATIPLGFLLGWLGTLLSGRQKAEAQRRQYEAVEGWILAGAVRRSG,failed
3,MSTSTSCPIPGGRDQLPDCYSTTPGGTLYATTPGGTRIIYDRKFLLECKNSPIARTPPCCLPQIPGVTTPPTAPLSKLEELKEQETEEEIPDDAQFEMDI,failed
4,MSTSYQHSGPEFTEAQMQAMVDGLFAGASIGAVCNMQQEQLEAGYALAYNLYTAGNYRDAETMFRALCVYDHNDERYWLGLAGCRQAQGDLAGAIDAYGLAGAASALGDPAPFVHAGICYMKLGDTENARNTFAGVPFIGDPDNDTHAAMHRKAEAMLELLAGERP,failed
5,MSTTDDSYIVVNNEAAGKVSLKEKWWHVLDTYKVGIIPVPLFVLAGVLIGIDCLSGKLPSDIVVMVATLAFFGFACGEFGKRLPIIGKMGAAAICATFIPSAMVHYGLLPDVVVESTTKFYKSTNILYLYICCIIVGSIMSMNRQTLIQGFMRIFFPMLCGEIAGMLVGMGVGIALGLDPFQIFFFLILPIMAGGVGEGAIPLSIGYATILHMDQGVALGRVLPIVMLGSLTAIILAGVLNQLGKRYPHLTGEGELMPNKGNNLGGSESSAPASAFSGKADVTTIASGALLAILLYMVGMLGHKMIGLPAPVGMLFAAVVVKLAHGVSPKMLEGSQVVYKFFQTSVTYPILFAVGVAITPWQELVNAFTIQNLLVIISTVVTLVGTGFLVGRKIGMHPIDVAIISCCQSGQGGTGDVAILTAGNRMMLMPFAQIATRIGGAINVSISLLVLANFLV,failed
6,MSVALPRSPDVDGSLSEAPNRIDVVTFGCRLNTYESEVMRREAESAGLGALQGGAVIFNTCAVTGEAVRQARQAIRKARRDNPGARIIVTGCAAQTEPEKFAAMDEVDLVLGNEEKLKANSYRALPDFGVNDTEKARVNDIFSVRETAGHMVDAIEGRARAFVQVQNGCDHRCTFCIIPYGRGNSRSVPMGAVVEQVKRLAGNGYAEIVLTGVDMTSFGADLPGAPKLGRLVKTILKQVPDVKRLRLSSIDSIEADDDLLDAIATEPRLMPHLHLSLQSGDDMILKRMKRRHLRDQSIRFCEDVRKLRPEIVFGADIIAGFPTETDAMFENSIKIVEECGLTHLHVFPFSPREGTPAARMPQVRREVVKQRAARLRAAGEAAYRRHLSSLPGTRQSILIERDGLGRTEGFTLAALGTGAPGEIVEATITGHDGARLNAVPLAARAA,failed
7,MSVETQRESLLNAPALLFMSAVVLIAFWILFPRQPAFRDPANLSAKDALSVAYLRVLVQSDPGNAPLRLSFVQVLTEAGMTDEAVLAMEPLQNAPESGLTYEIRLAELKLALQQLYRHPPRDVEASLRRRIGELVPLLLRLADNDKESNQVVLLAEQFGEPSVVAETFEQLAGMQNETRQTKSRWLAFAAKQRLAAAQPRAAAQNFCRAFTFERIARKKTELAKACLGAYLQAGVDREALKAAMQILSAYSSSNADAQLLLLAADVAQPMGDRDHALVWLEQASAHLPADQRLAERVVRLQVSMGLLSEGLARAPMLRASLIPGSERQRLLAHLYDWNGQPDEALALWLSFARHKADEEAETRAFALAQAKPDNEAIVQLLEAVMSRRKLTTTEADAYVKAGLAVAQPSRVEKQLRRHAERFGNPPPILNALVEVLVLQGKPDAALTLYEDMPEIQDGRQRLALARLYEEAGNTQKSFQLLLRDIDSPPPASAEEYWLLLAKVSTQLGQDAYAGQAYEKALALRSNDVEILENLQRLALRHHDEKKSERLARYGWERLKRIEDLQRLMRFSWKRRNWDELDQWLEVAEKLPSAAQARDYWYFQSMRRMAHGEQSAARGALQEILKLQAADPEVTEAMIWLLLAYEKIDRVLLDSVVAPYRAQTASQSTVNPALAEALAAAEQGLGRPVQAAAWFLRSLSTRAGDFLWILALADNMEWAGCPAHANYARFQALEMFASRQNSRIEVKYPSRLAEYFFGSKYLPPKREGTEDAKKQEELQSIRDQWGFGGKLDNADYFALRREVERLELSQWKDFAKAVRNRNEREVERQLALISDHLKRQPAAASHPDMLPLSIDDVDRANRWLAGEPEPNPSDLATELDICRETLTKIREFPVNSEPAKR,failed
8,MSVFTPLARPELETFLAPYGLGRLLDYQGIAAGSENTNYFISLEQGEFVLTLVERGPVQEMPFFIELLDVLHDANLPVPYALRTTDGQALRELAGKPALLQPRLPGKHISEPNTQHCVQIGELLANLHLATREQVLERKTDRGLDWMLSEGRNFLSHLGETQRALLEKSLQEIEDLKPQIMALPRANLHADLFRDNVLFEGTHLTGLIDFYNACSGPMLYDLAIALNDWCSRENGQLDAVRARALLGAYAGLRPFTAAESKLWATMLRIACVRFWLSRLIAAETFAGQDVLIHDPVEFEQRLAERQTPHIALPFAL,not failed
9,MSVIKIEKALKLDKVIFVDVRTEGEYEEDHILNAINMPLFKNNEHNEVGTIYKMQGKHEAIQKGFDYVSYKLKDIYLQAAELALNYDNIVIYCARGGMRSGSIVNLLSSLGVNVYQLEGGYKAYRNFVLEYLRHVMDTK,not failed
10,MSVKKERVDVLLVERGLIETREKAKRAIMAGLVYANEMRLDKPGEKISQDTEITVKGQVMPYVSRGGYKLEKALETFHLDLQDKVMIDIGSSTGGFTDCALQNGAKLSYALDVGYNQLAWKLRQDERVVVMERTNFRYVTPADLERGLPQFASIDVSFISLKLILPVLKTMLMPNGDVAALIKPQFEAGREQVGKKGIVRDRKVHEAVVEMIVEFALKEGYDVEGLTFSPITGGDGNIEFLIHLKWHGERENGENHSPISIEQVVTEAHEVLKQKGKGE,failed
11,MSVLDISIIIANYNTEEFLRNCLNSIKSTVKNVKYEVIVTDNNSKDDSVTMIKNEFPWVKLIESKINGGFAYANNLAIKESSGKYIFLLNTDTVLLKDVIEKMVNYMDENKDVGLLGPKLLNRDMSHQTSVSGFPSFKREFYHIYKLKNILKIPILKKIIVAMSGKIGSKDVEQYMMNFKSIDEPREVQVLVGAALLVRRNVIDKIGMLDERYFMYYEEIDFCYQANKAGFKAVYYPNGEIIHYIGQAATKSRILEHHHHHH,not failed
